The record followed here is patent publication US6428967.

In assay [1] the target is wild type human LDL receptor on CHO cells (human) (UniProt P01130). Kind of assay: 125I-LDL surface binding on CHO cells expressing the wild type human LDL receptor, with or without Dab1.
For assay [2] the target is unchanged. Kind of assay: cell-based or functional assay.

Chain of wild type human LDL receptor on CHO cells (human) (P01130 22-860): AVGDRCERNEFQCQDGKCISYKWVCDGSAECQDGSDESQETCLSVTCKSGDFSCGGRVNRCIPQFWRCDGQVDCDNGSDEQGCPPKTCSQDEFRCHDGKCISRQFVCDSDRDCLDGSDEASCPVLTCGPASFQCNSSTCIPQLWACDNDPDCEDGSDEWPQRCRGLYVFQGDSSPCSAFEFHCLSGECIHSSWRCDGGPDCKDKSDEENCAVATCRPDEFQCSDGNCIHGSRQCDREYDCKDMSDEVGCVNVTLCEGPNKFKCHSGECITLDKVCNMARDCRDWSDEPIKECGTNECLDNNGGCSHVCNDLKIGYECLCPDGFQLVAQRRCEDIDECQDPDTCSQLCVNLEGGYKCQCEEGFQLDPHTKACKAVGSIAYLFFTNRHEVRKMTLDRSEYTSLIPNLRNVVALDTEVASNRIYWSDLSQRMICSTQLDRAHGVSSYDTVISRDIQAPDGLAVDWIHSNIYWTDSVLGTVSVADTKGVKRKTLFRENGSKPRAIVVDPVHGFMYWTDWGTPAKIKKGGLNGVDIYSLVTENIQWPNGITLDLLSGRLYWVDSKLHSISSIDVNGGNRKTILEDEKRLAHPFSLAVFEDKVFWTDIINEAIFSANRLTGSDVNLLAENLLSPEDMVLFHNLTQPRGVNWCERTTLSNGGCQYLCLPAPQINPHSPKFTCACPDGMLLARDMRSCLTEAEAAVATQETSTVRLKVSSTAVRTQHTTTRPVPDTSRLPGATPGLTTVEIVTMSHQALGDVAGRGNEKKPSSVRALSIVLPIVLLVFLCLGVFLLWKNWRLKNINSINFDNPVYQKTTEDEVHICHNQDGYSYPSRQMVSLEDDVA

On to 125I labeled human LDL, P04114 28-4563, for which the fold of LDL bound on the cell surface, cells with Dab1 against cells without Dab1 in assay [1] was 2 times.

In turn, “Dab1 expressed in CHO cells from pcDNA3.1/ZEO DAB555 (from UniProt P97318 1-555)” displayed an LDL bound on the cell surface (125I labeled human LDL) in assay [2] of 2 times.
